PMC11861898 (Communications Biology, 2025)
Values belong to the binder of their own block, whether it stands above or below them.

Columns and labels:
[1] = molecular target: T1, human CIB2 R66W (deafness-related variant) (human, UniProt O75838 1-187, R66W); assay: pull-down
T1 sequence: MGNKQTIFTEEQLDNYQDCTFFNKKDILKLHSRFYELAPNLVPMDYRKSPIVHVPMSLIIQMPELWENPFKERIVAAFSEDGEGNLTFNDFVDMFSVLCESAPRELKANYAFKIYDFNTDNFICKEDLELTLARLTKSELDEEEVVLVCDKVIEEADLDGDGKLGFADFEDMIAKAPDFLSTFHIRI

[2] = molecular target: T2, human CIB2 F91S (deafness-related variant) (human, UniProt O75838 1-187, F91S); assay: pull-down
T2 sequence: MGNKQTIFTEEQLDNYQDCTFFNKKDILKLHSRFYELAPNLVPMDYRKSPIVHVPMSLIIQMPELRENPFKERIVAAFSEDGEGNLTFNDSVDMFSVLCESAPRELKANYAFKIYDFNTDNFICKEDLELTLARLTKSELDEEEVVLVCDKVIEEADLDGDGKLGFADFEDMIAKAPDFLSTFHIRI

[3] = molecular target: T3, human CIB2 R186W (deafness-related variant) (human, UniProt O75838 1-187, R186W); assay: pull-down
T3 sequence: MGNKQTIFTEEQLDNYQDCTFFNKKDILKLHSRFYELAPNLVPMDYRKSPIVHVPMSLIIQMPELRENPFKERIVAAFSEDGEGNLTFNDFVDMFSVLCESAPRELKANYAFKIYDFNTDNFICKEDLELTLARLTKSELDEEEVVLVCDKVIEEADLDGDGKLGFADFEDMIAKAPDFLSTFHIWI

[4] = molecular target: T1, human CIB2 R66W (deafness-related …); assay: ITC
[5] = molecular target: T2, human CIB2 F91S (deafness-related …); assay: ITC
[6] = molecular target: T3, human CIB2 R186W (deafness-related …); assay: ITC
[7] = molecular target: T4, human CIB2 1-187 (calcium- and integrin-binding protein 2), wild type (human, UniProt O75838 1-187); assay: ITC
T4 sequence: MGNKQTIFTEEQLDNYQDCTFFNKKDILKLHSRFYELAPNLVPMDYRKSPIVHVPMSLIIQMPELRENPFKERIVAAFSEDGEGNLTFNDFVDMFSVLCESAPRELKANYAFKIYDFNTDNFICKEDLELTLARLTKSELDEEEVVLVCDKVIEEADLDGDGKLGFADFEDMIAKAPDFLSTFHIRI

[8] = molecular target: T5, human CIB2 1-187 Q17A/T20A (human, UniProt O75838 1-187, Q17A | T20A); assay: ITC
T5 sequence: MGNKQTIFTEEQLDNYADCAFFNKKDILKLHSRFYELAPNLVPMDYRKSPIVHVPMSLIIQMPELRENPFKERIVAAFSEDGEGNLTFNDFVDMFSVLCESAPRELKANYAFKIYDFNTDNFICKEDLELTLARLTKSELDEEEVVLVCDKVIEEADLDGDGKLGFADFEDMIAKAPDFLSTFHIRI

[9] = molecular target: T6, human CIB2 1-187 D127A/D168A (EF-hand double mutant) (human, UniProt O75838 1-187, D127A | D168A); assay: ITC
T6 sequence: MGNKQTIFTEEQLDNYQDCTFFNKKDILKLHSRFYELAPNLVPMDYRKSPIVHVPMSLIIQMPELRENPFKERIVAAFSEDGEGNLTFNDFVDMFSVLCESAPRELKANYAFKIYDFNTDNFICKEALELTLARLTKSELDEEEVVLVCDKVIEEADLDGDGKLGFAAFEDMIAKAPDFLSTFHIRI

[10] = molecular target: T7, human CIB2 E64D (deafness-related variant) (human, UniProt O75838 1-187, E64D); assay: ITC
T7 sequence: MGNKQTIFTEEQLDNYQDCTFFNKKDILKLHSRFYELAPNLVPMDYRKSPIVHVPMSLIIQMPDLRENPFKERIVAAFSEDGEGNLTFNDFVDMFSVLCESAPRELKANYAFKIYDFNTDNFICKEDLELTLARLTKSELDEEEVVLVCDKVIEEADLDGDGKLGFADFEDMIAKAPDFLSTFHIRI

[11] = molecular target: T8, human CIB2 Y115C (deafness-related variant) (human, UniProt O75838 1-187, Y115C); assay: ITC
T8 sequence: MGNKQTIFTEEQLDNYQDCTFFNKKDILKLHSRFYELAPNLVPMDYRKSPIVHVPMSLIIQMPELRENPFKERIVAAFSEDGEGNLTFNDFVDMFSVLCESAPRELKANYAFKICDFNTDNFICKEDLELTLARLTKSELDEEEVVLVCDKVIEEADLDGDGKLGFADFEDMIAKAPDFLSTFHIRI

[12] = molecular target: T9, human CIB2 I123T (deafness-related variant) (human, UniProt O75838 1-187, I123T); assay: ITC
T9 sequence: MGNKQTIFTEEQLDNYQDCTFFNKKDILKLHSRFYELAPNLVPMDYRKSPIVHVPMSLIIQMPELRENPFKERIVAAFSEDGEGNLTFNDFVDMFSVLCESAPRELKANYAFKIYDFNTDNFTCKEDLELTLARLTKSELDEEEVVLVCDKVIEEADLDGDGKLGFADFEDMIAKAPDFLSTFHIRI

mouse CIB3 = molecular target: T10, mouse CIB3 (mouse, UniProt A0A5F8MPX9 1-187); assay: ITC
T10 sequence: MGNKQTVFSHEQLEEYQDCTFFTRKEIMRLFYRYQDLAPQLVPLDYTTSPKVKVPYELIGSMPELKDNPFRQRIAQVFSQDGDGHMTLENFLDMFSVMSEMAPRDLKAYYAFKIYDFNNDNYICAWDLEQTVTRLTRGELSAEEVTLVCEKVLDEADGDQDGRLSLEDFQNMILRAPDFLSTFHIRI

[13] = molecular target: T4, human CIB2 1-187 (calcium- and …); assay: SEC-MALS
human CIB2 1-187 E11R = molecular target: T11, human CIB2 1-187 E11R (human, UniProt O75838 1-187, E11R); assay: ITC + SEC
T11 sequence: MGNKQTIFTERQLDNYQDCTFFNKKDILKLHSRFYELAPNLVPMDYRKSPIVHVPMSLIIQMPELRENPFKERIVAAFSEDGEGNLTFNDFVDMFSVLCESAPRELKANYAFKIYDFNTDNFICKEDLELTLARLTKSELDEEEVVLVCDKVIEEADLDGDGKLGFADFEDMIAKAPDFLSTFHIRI

human CIB2 1-187 F21Q = molecular target: T12, human CIB2 1-187 F21Q (human, UniProt O75838 1-187, F21Q); assay: ITC + SEC
T12 sequence: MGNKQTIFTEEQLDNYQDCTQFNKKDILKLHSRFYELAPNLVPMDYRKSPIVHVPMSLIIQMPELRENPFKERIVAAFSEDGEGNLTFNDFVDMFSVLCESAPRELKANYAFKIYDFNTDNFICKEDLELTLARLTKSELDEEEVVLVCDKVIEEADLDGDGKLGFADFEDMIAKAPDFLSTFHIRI

[14] = molecular target: T4, human CIB2 1-187 (calcium- and …); assay: ITC + SEC
[15] = molecular target: T7, human CIB2 E64D (deafness-related …); assay: pull-down
[16] = molecular target: T8, human CIB2 Y115C (deafness-related …); assay: pull-down
[17] = molecular target: T9, human CIB2 I123T (deafness-related …); assay: pull-down

B2: human TMC1 CBD-2, amino acids 298-359 (first cytoplasmic loop between TM domains 2 and 3) (domain or fragment)
chain: KNIGDDGGGDDNTFNFSWKVFTSWDYLIGNPETADNKFNSITMNFKEAITEEKAAQVEENVH
binding result [4]: binds
binding result [5]: binds
binding result [6]: binds

B3: human TMC1 CBD-1 (CIB binding domain-1), residues 86-136 (domain or fragment)
chain: EEELERLKAELDEKRQIIATVKCKPWKMEKKIEVLKEAKKFVSENEGALGK
Kd [7]: ~300 nM
fold decrease in binding affinity against wild-type CIB2 [8]: > 15 fold
binding result [9]: binds
binding result [10]: binds
binding result [4]: binds
binding result [11]: binds
binding result [12]: binds
binding result [6]: binds
binding result (mouse CIB3): binds
stoichiometry N [13]: 1
binding result (human CIB2 1-187 E11R): binds
binding result (human CIB2 1-187 F21Q): binds

B5: GST-tagged human TMC1 CBD-1 (86-136) (domain or fragment)
chain: EEELERLKAELDEKRQIIATVKCKPWKMEKKIEVLKEAKKFVSENEGALGK
binding result [15]: binds
binding result [1]: binds
binding result [16]: binds
binding result [17]: binds
binding result [3]: binds

B6: human TMC1 CBD-1 (86-136) K121E (domain or fragment)
chain: EEELERLKAELDEKRQIIATVKCKPWKMEKKIEVLEEAKKFVSENEGALGK
binding result [14]: binds

B7: human TMC2 CBD-1 (aa 150-200) (domain or fragment)
chain: EEELAQILEQVEEKKKLIATMRSKPWPMAKKLTELREAQEFVEKYEGALGK
Kd [7]: ~600 nM

Other lines, results leading:

binding result [1]: binds
binding result [2]: binds
binding result [3]: binds
B1: GST-tagged human TMC1 CBD-2 (298-359) (domain or fragment)
chain: KNIGDDGGGDDNTFNFSWKVFTSWDYLIGNPETADNKFNSITMNFKEAITEEKAAQVEENVH

binding result [14]: binds
B4: human TMC1 CBD-1 (86-136) K107A (domain or fragment)
chain: EEELERLKAELDEKRQIIATVACKPWKMEKKIEVLKEAKKFVSENEGALGK

Kd [7]: ~4600 nM
Binder: ELDEKRQIIATVKCKPWKMEKKIEVLKEAKKFVSENEGALGK (domain or fragment) [human TMC1 fragment 95-136]

binding result [7]: binds
B8: human TMC2 CBD-2 (aa 363-424) (domain or fragment)
chain: NTQGSTGEGESDNFTFSFKMFTSWDYLIGNSETADNKYASITTSFKESIVDEQESNKEENIH
